Reference: paper PMC10118275

Tests used:
[1] = target: T1, MBP-TDF1 (Arabidopsis thaliana) (UniProt Q9LSI7); experiment: EMSA; conditions: 10 mM Tris-HCl pH 7.5, 50 mM KCl, 1 mM DTT, 20 uL, room temperature 20 min; 6% polyacrylamide, 0.5x TBE
T1 sequence: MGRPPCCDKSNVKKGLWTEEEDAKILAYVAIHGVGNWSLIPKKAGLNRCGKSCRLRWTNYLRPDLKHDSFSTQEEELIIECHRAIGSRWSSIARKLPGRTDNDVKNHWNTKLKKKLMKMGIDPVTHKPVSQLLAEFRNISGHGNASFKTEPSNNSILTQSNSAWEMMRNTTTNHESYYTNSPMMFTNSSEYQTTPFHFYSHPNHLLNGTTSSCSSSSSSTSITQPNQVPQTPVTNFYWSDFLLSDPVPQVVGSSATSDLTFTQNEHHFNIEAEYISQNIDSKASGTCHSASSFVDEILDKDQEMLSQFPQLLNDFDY

[2] = target: T1, MBP-TDF1 (Arabidopsis thaliana); experiment: competition; conditions: 10 mM Tris-HCl pH 7.5, 50 mM KCl, 1 mM DTT, 20 uL, room temperature 20 min; 6% polyacrylamide, 0.5x TBE

Sequence: TACGTGATTAGGATTTGTAACCACGTAGACGTGTAAAACAAAATTACTTTTTTATCTGTGATTTATAGGAATTTGAGATTTGAATGCAACGTTGTTGTTTCATCTAACAATAAGTGATGAAGAACTTCAAAAGTCTAAAACCATATCATTTATAAAATCA (double strand) [SKS18 promoter 18-2 probe]
- binding [1]: binds
- binding [2]: binds
